In the DeepSol protein solubility set:

Assay: soluble on expression in E. coli; label from the status in PepcDB or PDB records

With “MGSDKIHHHHHHMNALTWLTKHSQAVIFRKKLAGLTACSQMIELSTPLNDGQRKFIFRQQSARATLLAINYAQEAYILQHLDALPFTPKVYYQTANSSLLTWLEGKPATAFDPDLLEQLALQLATLHAYPLPKQRTILQLAERCQLLWDRLTPSQQHQLNFCPPFKKIEPLQLAICHHDLHLANLIQHQQQLFIIDWEYSAISDPVLEIALFFQANTLNSVQKQFFLTTYLSKINLNEPLFKQKMAEYTPAIQQLSQLWYALSEAIT” as the sequence, how does the “soluble on expression in E. coli” value read?
The value was “not soluble”.

Which “soluble on expression in E. coli” value does the source give for “VRQLLGLEGPIKRVECFDISHTMGEATVASCVVFDAVGPVRSQYRRYNITGITPGDDYAAMRQAIERRFRRAVEEDKQGERPDVLFIDGGAGQLAQAKMALNAVGVESVLLVGVSKGEERRAGHETLIMLDGQELHPGAASPALQFIQQVRDEAHRFAI” here?
The value was “not soluble”.

For “MGSDKIHHHHHHCWTYHYSEKPMNWENARKFCKQNYTDLVAIQNKREIEYLENTLPKSPYYYWIGIRKIGKMWTWVGTNKTLTKEAENWGAGEPNNKKSKEDCVEIYIKRERDSGKWNDDACHKRKAALCYTASCQPGSCNGRGECVETINNHTCICDAGYYGPQCQYVVQCEPLEAPELGTMDCIHPLGNFSFQSKCAFNCSEGRELLGTAETQCGASGNWSSPEPICQVVQCEPLEAPELGTMDCIHPLGNFSFQSKCAFNCSEGRELLGTAETQCGASGNWSSPEPICQETNRSFSKIKEGDYN”, which “soluble on expression in E. coli” value is on record?
Its value is “not soluble”.

Which “soluble on expression in E. coli” value does the source give for “MVGRRDGPFKPPGGLLRAFLVRVDAGHLRTVSYSTVLASTSAHSSALPPRRSPPMNAPAKSLLDIDAFPLVQVREMPRELADVERWLEEVEALLAVERDFALVYPPLPQETAEGDQQARKRLVLWLKENRQRFVEHCRGILLSANGQPDNLADLQQLAPVLQAVYGPPVSVAPDLASARGMAKALLSGPATGMNW” here?
The value was “not soluble”.

Which “soluble on expression in E. coli” value does the source give for “MSLRLIATEEAVTFQPVVDALRAHSRTDDASLDMILVRDVYGDEPARPAMIGRLSDVTGERLAEMDSNGVDMHLLSLTAPGVQMFDAETGTRLARIANDLMAQTVAANPTRFAGLGTFAPQDPASAAREIERVATQLRLNGLVINSHTNDLYYDDPFFHPVFEAIEASGLALYIHPRAPSKQIDRAFRDYGMNSAIWGYGIETSTNAVRMILSGLFDRFPRLKIVLGHMGEAIPFWLWRLDYMHGNATTFGGAPKLKLKPSEYFRRNFAITTSGVESHAALRYSIEVLGPENVMWAIDYPYQPMAPAVQFIRTAPIPEDVKAMVAGGNAARIFRITEGHHHHHH” here?
Its value is “soluble”.

For “MGSDKIHHHHHHMTDNFFHGVRVRESTDLVTAINDIDSTVIGIVAIADDADPEMFPLNTPVLLTRVNNALGKAGKTGSLYKSLKAISDQCSTKVIVVRVAAATDGDDNQTQSQLVIGGTAADGSYTGMYAFLTAEQKTGYRPRILAVPDHDTIEVATQLGVIAQKLRAFFYAYCHNCETIAEAKAYRETLNYREVMPIWPNFIAYNTLTGENEEFPAVAYACGLRALIDNTQGWHKSLSNVAVNNVLGISKDVFWALQAEDSDANELNAHEITTLIKRDGFRFWGNRTTDPDKEYIFEVYTRTAQILADSIAEAQFTTVDKPMTPGNVKDVVSGINAKLQALVTAGKLIGAACWFDIVDNPTTGLRQGKCIVRYNYTPVPPLEDLSLYQTFTDQYFETAFSSLGGA”, which “soluble on expression in E. coli” value is on record?
Its value is “not soluble”.

With “MYDVVGVRFKKAGKVYYFDPNQFDISENEFVIVETVRGIEYGKVVITKKQVDENDVVLPLKKVIRIANENDRTIVEENKHAAKEAYQVCQQKVVEHNLDMKLVDVEYTFDRNKIIFYFTADGRIDFRELVKDLAAIFRTRIELRQIGVRDEAKMLGGIGPCGRMLCCSTFLGDFEPVSIKMAKDQNLSLNPAKISGLCGRLMCCLKYENDEYEAAKEQLPDLDQRIQTPHGTGRVIGLNILERLIQVELVDKERIVEYTLDELVNKGVVSSQTTDLEHHHHHH” as the sequence, how does the “soluble on expression in E. coli” value read?
Its value is “not soluble”.

With “MGSDKIHHHHHHMHHWESLVGEQAIPFFRWRWLAALEDSSSISAKHGWQPLHLALWRDDMPVAVAPLYLKGHSYGEFVFDQAFARLAGDLGLGYYPKLLGMSPVSPVQGYRFYVAPGENEAELTVLMLETIDAFARRNQILSCNFLYVDPHWRPLAEAAGCATWLNQQSLWSADGQSDFSAYLNSFNANQRRNIKRERKAVQQAGLTVSALTGVELDVQLLRCMHGFYEQHCARWGPWGSKYLSEAFFEALADSSLRDQVVLFSAHRVSPREPVAMSLCIQDGQMLWGRYWGSKEEIDCLHFEVCYYAPIAWALENGLENFDPGAGGQHKRRRGFVAKPHASLHRWYEPRMDALIRGWLRKVNPLMLEEIESANADLPFRVEPAPQLIVE” as the sequence, how does the “soluble on expression in E. coli” value read?
The value was “not soluble”.
